Biological target: 6x(His)-tagged SARS-CoV-1 RBD (SARS-CoV-1, strain , UniProt P59594)
Test: BLI
Conditions: both partners purified

B1: D27LE (antibody, V domains shown)
VH: QVQLQQSGAEVKKPGSSVKVSCKASGGTFGNWSISWVRQAPGQGLEWMGGIDPSRGEATYAQKFQGRVTITTDESTSTAYMELSSLRSEDTAVYYCARETWYTSGGMDVWGQGTTVTVSS
VL: SYELTQPPSVSVAPGKTARITCGGNNIGRKSVHWYQQKPGQAPVLVVYDDSDRPSGIPERFSGSNSGNTATLTISRVEAGDEADYYCQVYDLWSSDYVFGTGTKVEIK
For B1, the Kd was < 10 pM.

Source: article PMC9714666 (Frontiers in Immunology, 2022)
